Reference: US20190142963A1 (INDIANA UNIVERSITY RESEARCH AND TECHNOLOGY, published 2019)
Non-standard residues stand in square brackets, D forms with d. No end group written: not given here.

Target: T1, human Klotho β (human, UniProt Q86Z14 1-1044)
T1 sequence (looked up): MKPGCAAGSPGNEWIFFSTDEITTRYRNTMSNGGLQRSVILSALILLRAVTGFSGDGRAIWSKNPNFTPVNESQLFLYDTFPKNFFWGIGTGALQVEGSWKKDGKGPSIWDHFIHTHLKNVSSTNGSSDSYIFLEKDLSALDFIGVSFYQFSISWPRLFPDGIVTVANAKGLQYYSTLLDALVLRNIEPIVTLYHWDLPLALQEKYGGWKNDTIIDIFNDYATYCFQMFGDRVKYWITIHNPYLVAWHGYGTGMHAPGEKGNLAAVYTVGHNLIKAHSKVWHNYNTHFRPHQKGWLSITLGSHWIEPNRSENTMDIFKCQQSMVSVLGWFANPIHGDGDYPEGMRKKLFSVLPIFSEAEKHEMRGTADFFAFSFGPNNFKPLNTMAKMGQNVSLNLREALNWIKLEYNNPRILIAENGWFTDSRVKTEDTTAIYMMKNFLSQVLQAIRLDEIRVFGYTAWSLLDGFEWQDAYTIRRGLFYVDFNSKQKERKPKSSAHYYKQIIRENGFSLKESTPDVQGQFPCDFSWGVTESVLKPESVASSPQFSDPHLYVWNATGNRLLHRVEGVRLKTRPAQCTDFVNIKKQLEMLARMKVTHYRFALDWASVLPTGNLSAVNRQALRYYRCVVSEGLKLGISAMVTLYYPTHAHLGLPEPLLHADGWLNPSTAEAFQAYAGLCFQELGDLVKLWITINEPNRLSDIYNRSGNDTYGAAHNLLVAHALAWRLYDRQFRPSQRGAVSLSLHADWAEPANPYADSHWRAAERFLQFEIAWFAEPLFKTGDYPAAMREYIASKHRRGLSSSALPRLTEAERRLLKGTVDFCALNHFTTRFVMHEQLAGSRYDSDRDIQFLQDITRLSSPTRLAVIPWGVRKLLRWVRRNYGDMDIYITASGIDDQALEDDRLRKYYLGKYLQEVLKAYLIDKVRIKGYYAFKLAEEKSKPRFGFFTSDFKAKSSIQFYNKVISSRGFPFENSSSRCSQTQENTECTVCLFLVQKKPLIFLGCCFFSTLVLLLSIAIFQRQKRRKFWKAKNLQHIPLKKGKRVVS
Assay: cell-based or functional assay

Row | Molecule | IC-50 of antagonism of FGF21 (pErk1/2, 293 HEK hKLB cells) [µM] | % maximal activity, Erk1/2 phosphorylation in 293T HEK hKLB cells (FIG. 9B) [%] | EC-50 of Erk1/2 phosphorylation in 293T HEK hKLB cells (FIG. 9B) [nM] | IC-50 of antagonistic activity (FIG. 8A) [nM] | IC-50 of antagonistic activity (FIG. 8B) [µM]
1 | FGF19 169-194 alanine mutant V181 (from UniProt O95750 191-216) (peptide) | 1.81 |  |  |  | 
2 | FGF19 K194A (from UniProt O95750 25-216) (ligand) |  | 31 | 8.1 |  | 
3 | FGF19 169-194 alanine mutant V187 (from UniProt O95750 191-216) (peptide) | 0.69 |  |  |  | 
4 | FGF19 169-194 alanine mutant E171 (from UniProt O95750 191-216) (peptide) | 0.12 |  |  |  | 
5 | FGF19 169-194 K194S (from UniProt O95750 191-216) (peptide) |  |  |  | 22.3 | 
6 | FGF19 169-194 alanine mutant L170 (from UniProt O95750 191-216) (peptide) | 2.17 |  |  |  | 
7 | FGF19 169-194 alanine mutant P190 (from UniProt O95750 191-216) (peptide) | > 2 |  |  |  | 
8 | FGF19 169-194 alanine mutant R188 (from UniProt O95750 191-216) (peptide) | 0.38 |  |  |  | 
9 | FGF19 169-194 alanine mutant P169 (from UniProt O95750 191-216) (peptide) | 0.21 |  |  |  | 
10 | FGF19 169-194 alanine mutant G183 (from UniProt O95750 191-216) (peptide) | 0.4 |  |  |  | 
11 | FGF19 169-194 alanine mutant G179 (from UniProt O95750 191-216) (peptide) | 1.93 |  |  |  | 
12 | FGF19 169-194 alanine mutant M175 (from UniProt O95750 191-216) (peptide) | 0.15 |  |  |  | 
13 | FGF19 169-194 alanine mutant E185 (from UniProt O95750 191-216) (peptide) | 0.43 |  |  |  | 
14 | FGF19 169-194 K194E (from UniProt O95750 191-216) (peptide) |  |  |  | 87.9 | 
15 | FGF19 169-194 (from UniProt O95750 169-194) (peptide) | 0.27 |  |  |  | 0.05
16 | FGF19 169-194 alanine mutant E193 (from UniProt O95750 169-194) (peptide) | 0.85 |  |  |  | 
17 | FGF19 169-194 alanine mutant S174 (from UniProt O95750 191-216) (peptide) | 3.39 |  |  |  | 
18 | FGF19 169-194 alanine mutant D173 (from UniProt O95750 191-216) (peptide) | 0.46 |  |  |  | 
19 | FGF19 169-194 alanine mutant T172 (from UniProt O95750 191-216) (peptide) | 1.4 |  |  |  | 
20 | FGF19 169-194 alanine mutant S191 (from UniProt O95750 191-216) (peptide) | > 2 |  |  |  | 
21 | FGF19 169-194 K194L (from UniProt O95750 191-216) (peptide) |  |  |  | 17.3 | 
22 | FGF19 169-194 alanine mutant F192 (from UniProt O95750 191-216) (peptide) | 2.97 |  |  |  | 
23 | FGF19 169-194 alanine mutant L184 (from UniProt O95750 191-216) (peptide) | 0.2 |  |  |  | 
24 | FGF19 169-194 alanine mutant T182 (from UniProt O95750 191-216) (peptide) | 0.52 |  |  |  | 
25 | FGF19 169-194 alanine mutant S189 (from UniProt O95750 169-194) (peptide) | > 2 |  |  |  | 

Target: T1, human Klotho β
Assay: cell-based or functional assay
Remark: another data set of the same source

Row | Molecule | % max activity of antagonism of FGF21 (pErk1/2, 293 HEK hKLB cells) [%] | IC-50 of antagonism of FGF21 (pErk1/2, 293 HEK hKLB cells) [nM]
26 | PPDVGSSDPLSMVGPSAGRSPSYAS [FGF21 25mer A17] | 99.7 | 139
27 | PPDVGSSDPLSMVAPSQGRSPSYAS [FGF21 25mer A14] | 97.7 | 136
28 | PPDVGSSDPLSMVGASQGRSPSYAS [FGF21 25mer A15] | 93.9 | 134
29 | PPDVASSDPLSMVGPSQGRSPSYAS [FGF21 25mer A5] | 102 | 90.1
30 | PPDVGSADPLSMVGPSQGRSPSYAS [FGF21 25mer A7] | 94.5 | 359
31 | PPDVGSSDPLAMVGPSQGRSPSYAS [FGF21 25mer A11] | 98 | 102
32 | PPDVGSSDPLSMVGPAQGRSPSYAS [FGF21 25mer A16] | 101 | 120

Target: T1, human Klotho β
Assay: cell-based or functional assay
Remark: another data set of the same source

Row | Molecule | IC-50 of antagonism of FGF21 (pErk1/2, 293 HEK hKLB cells) [µM]
33 | PPDVGSSDPLSMVGPSAGRSPSYAS [FGF21 25mer A17] | 0.13
34 | PLETDSMDPFGLVTGLEAVRSPSFEA [FGF19 169-194 K194A] | 0.005
35 | PPDVGSSDPLSMVAPSQGRSPSYAS [FGF21 25mer A14] | 0.13
36 | PPDVGSSDPLSMVGASQGRSPSYAS [FGF21 25mer A15] | 0.12
37 | PPDVASSDPLSMVGPSQGRSPSYAS [FGF21 25mer A5] | 0.09
38 | PPDVGSADPLSMVGPSQGRSPSYAS [FGF21 25mer A7] | 0.36
39 | PPDVGSSDPLAMVGPSQGRSPSYAS [FGF21 25mer A11] | 0.15
40 | PPDVGSSDPLSMVGPAQGRSPSYAS [FGF21 25mer A16] | 0.11

Target: T1, human Klotho β
Assay: cell-based or functional assay
Remark: another data set of the same source

Row | Molecule | % Activity vs C25 [%] | IC50 of antagonism of FGF21 (assay of Example 1) [nM]
41 | PPDVGSSDPLSMVG[dP]SQGRSPSYAS-NH2 [FGF21 C25 d15] | 66.8 | 375
42 | PPDVGSSDPLSMVGPSQGRSPSY[dA]S-NH2 [FGF21 C25 d24] | 32.3 | 1130
43 | PPDVGSSDPLSMVGPSQGRSPSYA[dS]-NH2 [FGF21 C25 d25] | 119 | 264
44 | [dP]PDVGSSDPLSMVGPSQGRSPSYAS-NH2 [FGF21 C25 d1] | 54.2 | 877
45 | P[dP]DVGSSDPLSMVGPSQGRSPSYAS-NH2 [FGF21 C25 d2] | 7.61 | 4720
46 | PPDVGSSDPLSMVGPSQGRS[dP]SYAS-NH2 [FGF21 C25 d21] | 3.8 | 7800
47 | PPDVGSSDPLSMVGP[dS]QGRSPSYAS-NH2 [FGF21 C25 d16] | 46 | 531
48 | PPDVG[dS]SDPLSMVGPSQGRSPSYAS-NH2 [FGF21 C25 d6] | 32.5 | 1980
49 | PPDVGSSDPLSMVGPSQGR[dS]PSYAS-NH2 [FGF21 C25 d20] | 2.3 | 33700
50 | PP[dD]VGSSDPLSMVGPSQGRSPSYAS-NH2 [FGF21 C25 d3] | 15.6 | 6100
51 | PPDVGSSDPLSMVGPS[dQ]GRSPSYAS-NH2 [FGF21 C25 d17] | 90.3 | 262
